Series [1] concerns the molecule itself. Kind of series: Bis-Tris gel of 293T supernatant (self-association, tetramer formation). The procedure: FIG. 14. Assessment of supernatants of catalase constructs for monomeric and multimeric catalase separation. Samples were assessed on Bis-Tris gel, blotted and probed with anti-catalase antibody (ABCAM: ab88067); predicted band sizes, 60 kDa for monomer and 240 kDa for tetramer, aAll 3 constructs secreted only the monomeric construct.
Three modifications of the human catalase sequence were assessed: hCatNT⁻, hCatWL⁻ and hCatNT⁻WL⁻. […] However, of the 3 constructs, only the wrapping loop domain deletion (hCatWD⁻) retained catalase activity (FIG. 5B). […] Intravenous administration to mice led to detection of hCatWD⁻ DNA in the liver and lung (typical for AAVrh.10 vectors) (Chiuchiolo et al., 2013), and importantly, easily detectable human catalase activity in serum, e.g., LEX 5a generates a secreted, functional catalase monomer (FIG. 7A-C).

Series [2] deals with the molecule itself. Kind of series: Sephacryl size exclusion column fractions, anti-HA Western (self-association, tetramer formation). On the procedure:
FIGS. 6A-B. Modified SOD3 construct. A) Secretion of the modified SOD3 constructs. Western (anti-HA tag) of supernatant of 293T cells transfected with: lane 1—mock; lane 2—unmodified HA tagged SOD3; lane 3—SOD3hd⁻. Only SOD3hd⁻ is in the supernatant. […] Approximate MW are calculated from column specifications.
Two modifications were made in a single SOD3 variant (hSOD3hd⁻), including a deletion of residues 50-59 replaced with an in frame copy of the residue segment from 74-80, and a deletion of residues 212-240, the heparin-binding domain. […] Intravenous administration to Balb/c mice led to vector DNA in liver and lung (liver 50-fold higher) and SOD activity in serum (FIG. 7D-F). LEX 5c, LEX 5d. Based on the in vitro and in vivo functional data of LEX 5a and LEX 5b, LEX 5c and LEX 5d were generated to express both catalase and SOD3 modified monomers. Based on expressing 2 genes in 1 AAV construct (De et al., 2008; Wang et al., 2010; Watanabe et al., 2010; Mao et al., 2011; Rosenberg et al., 2012; Hicks et al., 2012; Xie et al., 2014; Hicks et al., 2015; Pagovich et al., 2016; Liu et al., 2016), both […] use a single promoter, with the 2 modified cDNA separated by a furin 2A cleavage site which directs cleavage of the resulting precursor protein to generate the 2 function proteins. […]
On the technique in general: SEC sorts molecules by how far they enter the pores of the column.

B1: human catalase monomer with a 20 amino acid deletion from the wrapping loop domain (hCatWL^-) (enzyme)
chain: ADSRDPASDQMQHWKEQRAAQKADVLTTGAGNPVGDKLNVITVGPRGPLLVQDVVFTDEMAHFDRERIPERVVHAKGAGAFGYFEVTHDITKYSKAKVFEHIGKKTPIAVRFSTVAGESGSADTVRDPRGFAVKFYTEDGNWDLVGNNTPIFFIRDPILFPSFIHSQKRNPQTHLKDPDMVWDFWSLRPESLHQVSFLFSDRGIPDGHRHMNGYGSHTFKLVNANGEAVYCKFHYKTDQGIKNLSVEDAARLSQEDPDYGIRDLFNAIATGKYPSWTFYIQVMTFNQAETFPFNPFDLTKVWPHKDYPLIPVGKLVLNRNPVNYFAEVEQIAFDPSNMPPGIEASPDKMLQGRLFAYPDTHRHRLGPNYLHIPVNCPYRAPNYYPNSFGAPEQQPSALEHSIQYSGEVRRFNTANDDNVTQVRAFYVNVLNEEQRKRLCENIAGHLKDAQIFIQKKAVKNFTEVHPDYGSHIQALLDKYNAEKPKNAIHTFVQSGSHLAAREKANLYPYDVPDYA
notes: also called hCatWD^-
For the protein B1, the binding result in series [1] is listed as “no binding”.

B2: modified human superoxide dismutase 3 (hSOD3hd^-): residues 50-59 replaced with a copy of 74-80, and heparin-binding domain residues 212-240 deleted (enzyme)
chain: WTGEDSAEPNSDSAEWIRDMYAKVTEIWQEVATLDAAQHAACQVQPSATLDAAQPRVTGVVLFRQLAPRAKLDAFFALEGFPTEPNSSSRAIHVHQFGDLSQGCESTGPHYNPLAVPHPQHPGDFGNFAVRDGSLWRYRAGLAASLAGPHSIVGRAVVVHAGEDDLGRGGNQASVENGNAGRRLACCVVG
notes: also called expression product of LEX 5b; not shown: Hemagglutinin (HA) tag used for detection with anti-HA
For the protein B2, the binding result in series [2] is “no binding”.

The values above are taken from US20210381002A1 (CORNELL UNIVERSITY, published 2021).
